Results on 1 molecule are retold here after US20260028402A1 (SANYOU BIOPHARMACEUTICALS, published 2026).

For one test, the target named is T1, human PD-L1 on cells (human, UniProt Q9NZQ7 19-290).
T1 construct: whole, on cells; Overexpressed on CHO cells or present on HCC827 tumor cells; the cell is named under assay; also called human PD-L1-CHO cells; PD-L1 protein on HCC827 cells
Kind of test: flow cytometry on HCC827 cells.

A further test concerns the target T2, mouse PD-L1 on cells (mouse, UniProt Q9EP73 19-290).
T2 construct: whole, on cells; also called mouse PD-L1-CHO cells
Kind of test: flow cytometry on mouse PD-L1-CHO cells. A general note: A flow cytometer gives signals particle by particle.

For test [1], the target named is T3, B7-H2 protein (Sino Biological, 11559-H08H) (UniProt O75144 19-258).
T3 construct: Bought protein
T3 sequence (looked up): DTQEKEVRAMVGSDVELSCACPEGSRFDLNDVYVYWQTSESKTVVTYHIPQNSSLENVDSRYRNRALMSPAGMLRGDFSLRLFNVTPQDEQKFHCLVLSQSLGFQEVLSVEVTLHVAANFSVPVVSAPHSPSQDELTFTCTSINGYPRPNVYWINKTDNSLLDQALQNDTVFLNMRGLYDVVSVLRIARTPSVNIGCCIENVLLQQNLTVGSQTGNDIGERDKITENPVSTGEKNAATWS
Kind of test: ELISA, protein coated at 2 ug/mL; legend: N/A: No binding activity detected. On the procedure:
(§1) The specific procedures were as follows:
(§2) One day before the experiment, 30 μL of protein dilutions with a final concentration of 2 μg/mL (B7-H1 (i.e., PD-L1), B7-H2, B7-H3, B7-H4, and B7-DC (all proteins were purchased from Sino Biological Inc., catalog numbers 10084-HNAH, 11559-H08H, 11188-H08H, 10738-H08H, and 10292-H08H-B, respectively)) were added to the ELISA plates and the plates were incubated overnight at 4° C. The next day, the ELISA plate was rinsed three times with PBST, then blocked with 150 μL of PBS containing 5% skim milk powder at room temperature for 2 hours. […] The plates were washed three times with PBST, and 30 μL of 1:7000 diluted anti-human IgG Fc-HRP secondary antibody was added per well, followed by incubation at room temperature for 30 minutes. After washing the plate six times with PBST, TMB was added for color development, and the reaction was terminated by adding 2M HCl. The absorbance was read at a wavelength of 450 nm using a microplate reader (Molecular Devices, SpecterMax 190).
(In general: ELISA stands for enzyme-linked immunosorbent assay.)

Test [2] addresses T4, B7-H3 protein (Sino Biological, 11188-H08H) (UniProt Q5ZPR3 29-461).
T4 construct: Bought protein
T4 sequence (looked up): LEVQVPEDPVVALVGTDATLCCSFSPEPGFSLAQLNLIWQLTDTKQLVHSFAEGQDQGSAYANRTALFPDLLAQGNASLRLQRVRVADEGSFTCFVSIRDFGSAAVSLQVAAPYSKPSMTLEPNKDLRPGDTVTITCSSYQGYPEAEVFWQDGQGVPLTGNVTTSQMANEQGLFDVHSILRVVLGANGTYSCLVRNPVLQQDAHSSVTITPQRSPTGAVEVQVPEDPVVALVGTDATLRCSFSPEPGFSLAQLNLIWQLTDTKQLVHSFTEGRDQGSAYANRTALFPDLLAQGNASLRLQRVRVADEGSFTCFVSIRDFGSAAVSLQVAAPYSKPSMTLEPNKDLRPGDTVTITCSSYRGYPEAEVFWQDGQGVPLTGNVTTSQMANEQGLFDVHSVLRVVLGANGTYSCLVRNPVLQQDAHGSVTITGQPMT
The test is described as above. The protocol:
as §1, §2

The target in test [3] is T5, B7-H4 protein (Sino Biological, 10738-H08H) (UniProt Q7Z7D3 25-258).
T5 construct: Bought protein
T5 sequence (looked up): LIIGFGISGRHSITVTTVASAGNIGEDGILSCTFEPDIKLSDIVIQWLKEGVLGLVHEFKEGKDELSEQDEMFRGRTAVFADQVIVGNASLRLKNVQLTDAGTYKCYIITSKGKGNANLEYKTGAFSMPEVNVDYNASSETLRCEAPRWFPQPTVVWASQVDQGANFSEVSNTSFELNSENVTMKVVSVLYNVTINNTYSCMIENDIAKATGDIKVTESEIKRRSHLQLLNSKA
The test is described as above. On the procedure: as §1, §2

In test [4] the target is T6, B7-DC protein (Sino Biological, 10292-H08H-B) (UniProt Q9BQ51 20-220).
T6 construct: Bought protein
T6 sequence (looked up): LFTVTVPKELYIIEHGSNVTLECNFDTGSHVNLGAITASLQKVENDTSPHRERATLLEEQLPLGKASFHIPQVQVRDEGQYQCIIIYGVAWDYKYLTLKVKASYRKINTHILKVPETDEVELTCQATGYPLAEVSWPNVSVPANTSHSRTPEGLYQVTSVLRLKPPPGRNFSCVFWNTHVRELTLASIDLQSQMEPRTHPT
The description is as above. On the procedure:
as §1, §2

T1 sequence (Q9NZQ7 19-290): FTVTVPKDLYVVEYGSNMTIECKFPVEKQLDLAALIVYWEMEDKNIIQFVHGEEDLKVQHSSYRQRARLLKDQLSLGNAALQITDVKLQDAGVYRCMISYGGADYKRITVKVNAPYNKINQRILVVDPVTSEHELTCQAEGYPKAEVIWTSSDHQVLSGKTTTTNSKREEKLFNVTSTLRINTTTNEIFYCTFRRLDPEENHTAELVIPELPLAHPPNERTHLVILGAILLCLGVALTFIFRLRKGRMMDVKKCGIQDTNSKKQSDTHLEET
T2 sequence (Q9EP73 19-290): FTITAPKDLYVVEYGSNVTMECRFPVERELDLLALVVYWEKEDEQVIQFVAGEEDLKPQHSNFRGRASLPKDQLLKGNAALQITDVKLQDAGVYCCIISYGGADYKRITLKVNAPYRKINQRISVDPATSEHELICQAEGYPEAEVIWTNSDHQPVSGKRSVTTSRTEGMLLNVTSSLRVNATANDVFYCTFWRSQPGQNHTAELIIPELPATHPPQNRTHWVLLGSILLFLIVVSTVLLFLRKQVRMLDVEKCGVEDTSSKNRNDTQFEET
Protocol for human PD-L1 on cells: The cells were resuspended in the prepared FACS buffer and counted, and the cell suspension density was adjusted to 2×10⁶ cells/mL. 100 μL of HCC827 cells were added per well to 96-well plates. The plates were centrifuged at 300 g to remove the supernatant. […] The incubated cell mixture was centrifuged at 300 g to remove the supernatant, 200 μL of FACS buffer was added to corresponding wells, and the cells were resuspended with a multichannel pipette. The centrifugation, resuspension and washing steps were repeated twice, and the cells were centrifuged at 300 g to remove the supernatant. […] The incubated cell mixture was centrifuged at 300 g to remove the supernatant, 200 μL of FACS buffer was added to corresponding wells, and the cells were resuspended with a multichannel pipette. The centrifugation, resuspension and washing steps were repeated twice, and the cells were centrifuged at 300 g to remove the supernatant. The PE-labeled anti-biotin flow antibody (Abcam) was added, and the cells were pipetted to mix with a multichannel pipette and incubated at 4° C. for 30 minutes. The cells were centrifuged at 300 g to remove the supernatant, and FACS buffer was added to resuspend the cells. The centrifugation, resuspension and washing steps were repeated twice, and 200 μL of FACS buffer was added per well to resuspend the cells.
Protocol for mouse PD-L1 on cells: The cells were resuspended with the prepared FACS buffer and counted, and the cell suspension density was adjusted to 2×10⁶ cells/mL. 100 μL of mouse PD-L1-CHO cells and cynomolgus monkey PD-L1-CHO cells were added per well to the 96-well plates, respectively. The plates were centrifuged at 300 g to remove the supernatant. […] The incubated cell mixture was centrifuged at 300 g to remove the supernatant, 200 μL of FACS buffer was added to corresponding wells, and the cells were resuspended with a multichannel pipette. The centrifugation, resuspension and washing steps were repeated twice, and the cells were centrifuged at 300 g to remove the supernatant. The PE-labeled anti-human IgG Fc flow antibody (Abcam, ab98596) was added, and the cells were pipetted to mix with a multichannel pipette and incubated at 4° C. for 30 minutes. The cells were centrifuged at 300 g to remove the supernatant, and FACS buffer was added to resuspend the cells. The centrifugation, resuspension and washing steps were repeated twice, and 200 μL of FACS buffer was added per well to resuspend the cells.

B1: m18 (antibody, human IgG1, V domains shown)
VH: EVQLVESGGGLVQPGGSLRLSCAASRTDSNIHGMHWYRQAPGKGREWVGMIFIDGNTIVTDSVKGRFTISRDNAKNTLYLQMNTLRAEDTAVYYCAADSRGYGRAWGQGTTVTVSS
notes: also called antibody m18; anti-PD-L1 antibody m18
As to B1, the binding result with human PD-L1 on cells was “binds”; with mouse PD-L1 on cells, “binds”; in test [1], “no binding”; in test [2] it was “no binding”; in test [3] it was “no binding”; in test [4], “no binding”.
